Target: T1, 15N-labeled human CyPA (human, UniProt P62937 1-165, 15N-labeled)
T1 construct: human cyclophilin A (CyPA); also called cyclophilin A
Assay: NMR titration; peptide added stepwise to 15N-labeled CyPA (~0.5 mM); 2D 1H,15N-HSQC, 22°C; 50 mM NaH2PO4/Na2PO4, pH 6.3, 40 mM NaCl, 2 mM EDTA, 1 mM DTT
Settings: both partners purified

B1: synthetic WT peptide, residues 304-323 of NS5A (peptide)
peptide: GFPRALPAWARPDYNPPLVE
notes: residues 304-323 of NS5A of HCV JFH-1 (genotype 2a); numbers count on: NS5A itself, not the polyprotein; also called 20-mer peptide (G304-E323); source: synthetic peptide, bought: NEO BioScience
**Q.** Does B1 bind?
**A.** Result: binds

— paper PMC2944805, “A Major Determinant of Cyclophilin Dependence and Cyclosporine Susceptibility of Hepatitis C Virus Identified by a Genetic Approach” (PLoS Pathogens, 2010)
